Laboratory results from article PMC8597827, “The effect of S427F mutation on RXRα activity depends on its dimeric partner†”.

Biological target: RXRα S427F (human, UniProt P19793 1-462, S427F)
Assay: EMSA; no ligand; binds as well as WT; two shifts; competed by 5x and 25x unlabeled DR1; 10 mM Tris HCl pH 8.0, 150 mM KCl, 0.5 mM EDTA, 0.1% Triton X-100, 12.5% glycerol, 0.2 mM DTT, 1 ug poly(dI-dC), 100 pmol probe in 20 uL; 10 min RT then 5 min 37 C; 5% PAGE in 0.5x TBE at 4 C
Details: protein: recombinant; chain copies: 2; blunt

RXRα S427F, sequence (P19793 whole entry S427F): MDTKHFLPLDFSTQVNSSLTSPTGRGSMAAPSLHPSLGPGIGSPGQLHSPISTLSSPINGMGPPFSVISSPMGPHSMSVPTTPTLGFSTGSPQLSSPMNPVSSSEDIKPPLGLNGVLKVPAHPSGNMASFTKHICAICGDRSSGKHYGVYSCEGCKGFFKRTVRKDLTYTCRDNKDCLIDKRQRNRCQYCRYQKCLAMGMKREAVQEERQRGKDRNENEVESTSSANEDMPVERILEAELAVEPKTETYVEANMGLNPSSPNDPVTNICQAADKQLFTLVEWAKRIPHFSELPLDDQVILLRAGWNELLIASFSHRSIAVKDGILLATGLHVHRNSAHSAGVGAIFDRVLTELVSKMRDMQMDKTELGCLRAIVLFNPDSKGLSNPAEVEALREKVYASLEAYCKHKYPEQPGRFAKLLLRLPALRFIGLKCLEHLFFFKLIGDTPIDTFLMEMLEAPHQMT

B1: DR1 (dsDNA)
DNA 1: TCGAGGGTAGGGGTCAGAGGTCACTCGTCGA
DNA 2: TCGACGAGTGACCTCTGACCCCTACCCTCGA
- binding result: binds
